This passage reports EC50 results from US20190240316A1.

In assay [1] the target is RSV strain A2 F protein, pre-fusion-stabilized DS-Cav1 (human respiratory syncytial virus subgroup A strain A2) (UniProt P03420). Description: ELISA on coated antigen. A general note: ELISA stands for enzyme-linked immunosorbent assay.
The target in assay [2] is RSV strain A2 F protein, pre-fusion-stabilized SC-TM (human respiratory syncytial virus strain A2) (UniProt P03420). The experiment in a line: ELISA on coated antigen.

As a reminder, the EC50 is the concentration that produces a half-maximal response. Read a high EC50 as lower potency in that assay.

In assay [1], mAb D25 (antibody) had an EC50 of 0.089 µg/mL.

On to motavizumab (antibody), for which the results for the EC50 in assay [2] and in assay [1] were 0.028 µg/mL and 0.037 µg/mL, respectively.
